Measured values reported in US20250295799A1 (Zymeworks, published 2025).
Each block holds one binder with its values, some of them ahead of it.

Tests used:
[1] = biological target: T1, cynomolgus monkey glypican-3 (GPC3) (cynomolgus monkey, UniProt A5A6P7 25-554 (Pan troglodytes entry)); experiment: flow cytometry on CHO-S cells transfected with cynomolgus GPC3;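 also: antibodies incubated 24 h at 4 °C with transiently transfected cells, binding read as AF647 geometric mean fluorescence of live cells, GFP-transfected cells as negative control, Hill-slope specific-binding fit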
T1 construct: Transiently expressed on CHO-S cells; also called cynoGPC3; CynoGPC3-CHO
Protocol: (§1) Briefly, CHO—S cells were transiently transfected for −24 hours with a pTT5-based expression plasmid encoding human GPC3 or cynomolgus monkey GPC3, 0.5 μg DNA per 1 million cells, using the Neon™ Transfection System (Thermo Fisher Scientific Corp., Waltham, MA), to transiently express human or cynomolgus monkey GPC3. Cells transfected with GFP were used as negative transfection controls. Following transfection, cells were seeded at 50,000 cells/well in V-bottom 96-well plates and treated with antibody for 24 hours at 4° C. to prevent internalization. […] Following incubation and washing, fluorescence was detected by flow cytometry on a BD LSRFortessa™ Cell Analyzer (BD Biosciences, Franklin Lake, NJ) with 1,000 minimum events collected per well. AF647/APC-A GeoMean (fluorescence signal geometric mean, proportional to anti-Human AF647 binding) in live cell population was plotted against antibody concentration using GraphPad Prism Version 9 (GraphPad Software, San Diego, CA). The Bmax and Kd values were derived from the “Specific binding with Hill slope” nonlinear regression curve fit in GraphPad Prism Version 9.

human glypican-3 (GPC3) [2] = biological target: T2, human glypican-3 (GPC3) (human, UniProt P51654 25-554); experiment: flow cytometry on CHO-S cells transfected with human GPC3;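 also: antibody binding to transiently transfected CHO-S cells after 24 hours at 4 °C, read as geometric mean fluorescence of anti-human AF647 in live cells, fitted against antibody concentration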
T2 construct: Endogenous on JHH-7, JHH-5, HepG2 and NCI-H446 tumour cells, or transiently expressed on CHO-S cells from a pTT5 plasmid; also called hGPC3; huGPC3
Protocol: as §1

human glypican-3 (GPC3) [3] = biological target: T2, human glypican-3 (GPC3); experiment: flow cytometry on JHH-5 cells (GPC3-mid);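 also: antibody binding to cells at 4 °C for 24 h, detected with anti-human AF647 as geometric mean fluorescence of live cells versus antibody concentration, fitted by specific binding with Hill slope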
Protocol: Briefly, cells were seeded at 50,000 cells/well in V-bottom 96-well plates and treated with antibody for 24 hours at 4° C. to prevent internalization. […] Following incubation and washing, fluorescence was detected by flow cytometry on a BD LSRFortessa™ Cell Analyzer (BD Biosciences, Franklin Lake, NJ) with 1,000 minimum events collected per well. AF647/APC-A GeoMean (fluorescence signal geometric mean, proportional to anti-Human AF647 binding) in live cell population was plotted against antibody concentration using GraphPad Prism Version 9 (GraphPad Software, San Diego, CA). The Bmax, Curve Hill Slope (h) and Kd values were derived from the “Specific binding with Hill slope” nonlinear regression curve fit in GraphPad Prism Version 9.

human glypican-3 (GPC3) [4] = biological target: T2, human glypican-3 (GPC3); experiment: cell-based or functional assay
human glypican-3 (GPC3) [5] = biological target: T2, human glypican-3 (GPC3); experiment: flow cytometry on JHH-7 cells (GPC3-high);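 also: antibody binding at 4 °C for 24 h, detected with anti-human AF647 secondary, geometric mean fluorescence of live cells versus antibody concentration, fitted as specific binding with Hill slope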
For JHH-5 Internalization (MFI) in this document: test concentration or dose not given here.
For JHH-7 Internalization (MFI) in this document: test concentration or dose not given here.

Bmax (MFI) [1]: 3280 MFI | Kd [1]: 0.09 nM | Bmax (MFI) (human glypican-3 (GPC3) [2]): 2660 MFI | Kd (human glypican-3 (GPC3) [2]): 0.08 nM | Bmax (MFI) (human glypican-3 (GPC3) [3]): 5590 MFI | Kd (human glypican-3 (GPC3) [3]): 0.19 nM | JHH-5 Internalization (MFI) (human glypican-3 (GPC3) [4]): 8770 MFI | JHH-7 Internalization (MFI) (human glypican-3 (GPC3) [4]): 6560 MFI | Bmax (MFI) (human glypican-3 (GPC3) [5]): 14800 MFI | Kd (human glypican-3 (GPC3) [5]): 0.31 nM
B1: codrituzumab (v37575) (antibody, human IgG1, kappa, V domains shown)
VH: QVQLVQSGAEVKKPGASVKVSCKASGYTFTDYEMHWVRQAPGQGLEWMGALDPKTGDTAYSQKFKGRVTLTADKSTSTAYMELSSLTSEDTAVYYCTRFYSYTYWGQGTLVTVSS
VL: DVVMTQSPLSLPVTPGEPASISCRSSQSLVHSNRNTYLHWYLQKPGQSPQLLIYKVSNRFSGVPDRFSGSGSGTDFTLKISRVEAEDVGVYYCSQNTHVPPTFGQGTKLEIKR
notes: also called GC33; RG-7686

Bmax (MFI) (human glypican-3 (GPC3) [5]): 9650 MFI | Kd (human glypican-3 (GPC3) [5]): 0.67 nM
B4: H18L6_LC_N33R mAb, v40216 (antibody, human IgG1, kappa, V domains shown)
VH: QVQLVQSGAEVKKPGSSVKVSCKASGYTFTDYEMHWVKQAPGHGLEWIGAIDPETGDTAYNQKFKGKATLTADTSTSTAYMELSSLRSEDTAVYYCTRYFSFAYWGQGTLVTVSS
VL: EIVLTQSPATLSLSPGERATISCRSSQSLRHSRGNTYLQWYQQKPGQAPRLLIYKVSNRFSGVPARFSGSGSGTDFTLTISSLEPEDFAVYFCYQSKHVPYTFGGGTKVEIKR
notes: M3-H18L6 chains with the stated light chain point mutation, IgG1/kappa

Bmax (MFI) (human glypican-3 (GPC3) [5]): 9990 MFI | Kd (human glypican-3 (GPC3) [5]): 0.75 nM
B6: H18L6_LC_N33T mAb, v40214 (antibody, human IgG1, kappa, V domains shown)
VH: QVQLVQSGAEVKKPGSSVKVSCKASGYTFTDYEMHWVKQAPGHGLEWIGAIDPETGDTAYNQKFKGKATLTADTSTSTAYMELSSLRSEDTAVYYCTRYFSFAYWGQGTLVTVSS
VL: EIVLTQSPATLSLSPGERATISCRSSQSLRHSTGNTYLQWYQQKPGQAPRLLIYKVSNRFSGVPARFSGSGSGTDFTLTISSLEPEDFAVYFCYQSKHVPYTFGGGTKVEIKR
notes: as for B4

The remaining lines, values behind:

B2: H18L6_LC_G34H mAb, v40205 (antibody, human IgG1, kappa, V domains shown)
VH: QVQLVQSGAEVKKPGSSVKVSCKASGYTFTDYEMHWVKQAPGHGLEWIGAIDPETGDTAYNQKFKGKATLTADTSTSTAYMELSSLRSEDTAVYYCTRYFSFAYWGQGTLVTVSS
VL: EIVLTQSPATLSLSPGERATISCRSSQSLRHSNHNTYLQWYQQKPGQAPRLLIYKVSNRFSGVPARFSGSGSGTDFTLTISSLEPEDFAVYFCYQSKHVPYTFGGGTKVEIKR
notes: as for B4
Bmax (MFI) [1]: 2990 MFI | Kd [1]: 0.14 nM | Bmax (MFI) (human glypican-3 (GPC3) [2]): 2460 MFI | Kd (human glypican-3 (GPC3) [2]): 0.1 nM | Bmax (MFI) (human glypican-3 (GPC3) [3]): 4580 MFI | Kd (human glypican-3 (GPC3) [3]): 0.16 nM | JHH-5 Internalization (MFI) (human glypican-3 (GPC3) [4]): 9170 MFI | JHH-7 Internalization (MFI) (human glypican-3 (GPC3) [4]): 7320 MFI | Bmax (MFI) (human glypican-3 (GPC3) [5]): 12500 MFI | Kd (human glypican-3 (GPC3) [5]): 0.43 nM

B3: H18L6_LC_N33H mAb, v40218 (antibody, human IgG1, kappa, V domains shown)
VH: QVQLVQSGAEVKKPGSSVKVSCKASGYTFTDYEMHWVKQAPGHGLEWIGAIDPETGDTAYNQKFKGKATLTADTSTSTAYMELSSLRSEDTAVYYCTRYFSFAYWGQGTLVTVSS
VL: EIVLTQSPATLSLSPGERATISCRSSQSLRHSHGNTYLQWYQQKPGQAPRLLIYKVSNRFSGVPARFSGSGSGTDFTLTISSLEPEDFAVYFCYQSKHVPYTFGGGTKVEIKR
notes: as for B4
Bmax (MFI) (human glypican-3 (GPC3) [5]): 8070 MFI | Kd (human glypican-3 (GPC3) [5]): 0.77 nM

B5: H18L6_LC_N33A mAb, v40219 (antibody, human IgG1, kappa, V domains shown)
VH: QVQLVQSGAEVKKPGSSVKVSCKASGYTFTDYEMHWVKQAPGHGLEWIGAIDPETGDTAYNQKFKGKATLTADTSTSTAYMELSSLRSEDTAVYYCTRYFSFAYWGQGTLVTVSS
VL: EIVLTQSPATLSLSPGERATISCRSSQSLRHSAGNTYLQWYQQKPGQAPRLLIYKVSNRFSGVPARFSGSGSGTDFTLTISSLEPEDFAVYFCYQSKHVPYTFGGGTKVEIKR
notes: as for B4
Bmax (MFI) (human glypican-3 (GPC3) [5]): 7870 MFI | Kd (human glypican-3 (GPC3) [5]): 0.62 nM

B7: H18L6_LC_G34T mAb, v40209 (antibody, human IgG1, kappa, V domains shown)
VH: QVQLVQSGAEVKKPGSSVKVSCKASGYTFTDYEMHWVKQAPGHGLEWIGAIDPETGDTAYNQKFKGKATLTADTSTSTAYMELSSLRSEDTAVYYCTRYFSFAYWGQGTLVTVSS
VL: EIVLTQSPATLSLSPGERATISCRSSQSLRHSNTNTYLQWYQQKPGQAPRLLIYKVSNRFSGVPARFSGSGSGTDFTLTISSLEPEDFAVYFCYQSKHVPYTFGGGTKVEIKR
notes: as for B4
Bmax (MFI) [1]: 2840 MFI | Kd [1]: 0.14 nM | Bmax (MFI) (human glypican-3 (GPC3) [2]): 2320 MFI | Kd (human glypican-3 (GPC3) [2]): 0.11 nM | Bmax (MFI) (human glypican-3 (GPC3) [3]): 4130 MFI | Kd (human glypican-3 (GPC3) [3]): 0.11 nM | JHH-5 Internalization (MFI) (human glypican-3 (GPC3) [4]): 9280 MFI | JHH-7 Internalization (MFI) (human glypican-3 (GPC3) [4]): 9040 MFI | Bmax (MFI) (human glypican-3 (GPC3) [5]): 10900 MFI | Kd (human glypican-3 (GPC3) [5]): 0.42 nM

B8: H18L6_LC_N33K mAb, v40217 (antibody, human IgG1, kappa, V domains shown)
VH: QVQLVQSGAEVKKPGSSVKVSCKASGYTFTDYEMHWVKQAPGHGLEWIGAIDPETGDTAYNQKFKGKATLTADTSTSTAYMELSSLRSEDTAVYYCTRYFSFAYWGQGTLVTVSS
VL: EIVLTQSPATLSLSPGERATISCRSSQSLRHSKGNTYLQWYQQKPGQAPRLLIYKVSNRFSGVPARFSGSGSGTDFTLTISSLEPEDFAVYFCYQSKHVPYTFGGGTKVEIKR
notes: as for B4
Bmax (MFI) (human glypican-3 (GPC3) [5]): 9230 MFI | Kd (human glypican-3 (GPC3) [5]): 0.56 nM
